The RNAGym collection of RNA variant scans (doi:10.1073/pnas.2313332121)

B1: TPR t1 (parent)
chain: GACCAAUCUGCCCUCAGAGCUCGAGAACAUCUUCGGAUGCAGAGGAGGCAGGCUUCGGUGGCGCGAUAGCGCCAACGUCCUCAACCUCCAAUGCAUCCCACCACAUGAUGAUGCCUGAAGAGCCUUGGUUUUUUG

Variants of: B1
Assay: polymerase ribozyme fitness, log enrichment relative to wild type (log ratio); higher = more active; in vitro selection for triplet polymerase activity
How it was run: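 A single round of triplicate in vitro selection, including frozen incubation at −7 °C, was applied to PCR-built, transcribed mutant libraries of each subunit of a heterodimeric triplet polymerase ribozyme. Illumina sequencing of input and output libraries retained genotypes with ≥10 input reads and ≥1 read per output. Fitness is the base-2 logarithm of genotype enrichment divided by wild-type enrichment, from inverse-variance-weighted replicate averages.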

Variant | polymerase ribozyme fitness (log ratio)
GACCAAUCUGCCCUCAGAGCUCGAGAACAUCUUCGGAUGCAGAGGAGGCAGGCUUCGGUGGCGCGAUAGCGCCAACGUCCUCAACUUCCAAUACAUCCCAGCACAUGAUGAUGCCUGAAGAACCUUGGUUUUUUG | -3.73
GACCAAUCUGCCCUCAGAGCUCGAGAACAUCUUCGGAUGCAGAGGAGGCAGGCUUCGGUGGCGCGAUAGCGCCAACGUCCUCAACUUCCAAUGCAUCCCACCACAUUAUGAUGCCUGAAGAGCCUUGGUUUUUUG | -5.23
GACCAAUCUGCCCUCAGAGCUCGAGAACAUCUUCGGAUGCAGAGGAGGCAGGCUUCGGUGGCGCGAUAGCGCCAACGUCCUCAACUUCCAAUGCAUCCCACCACAUGAUACUGCCUGAAGAGCCUUGGUUUUUUG | -4.3
GACCAAUCUGCCCUCAGAGCUCGAGAACAUCUUCGGAUGCAGAGGAGGCAGGCUUCGGUGGCGCGAUAGCGCCAACGUCCUCAACUUCCAAUGCAUCCCACCACAUGAUUAUGCCUGAAGAGCCUUGGUUUUUUG | -1.02
GACCAAUCUGCCCUCAGAGCUCGAGAACAUCUUCGGAUGCAGAGGAGGCAGGCUUCGGUGGCGCGAUAGCGCCAACGUCCUCAACUUCCAAUGCAUCCCACCACAUGAUGAAGCCUGAAGAGUCUUGGUUUUUUG | 0.628
GACCAAUCUGCCCUCAGAGCUCGAGAACAUCUUCGGAUGCAGAGGAGGCAGGCUUCGGUGGCGCGAUAGCGCCAACGUCCUCAACUUCCAAUGCAUCCCACCACAUGAUGAUGCCUGAAGAGCCUUGGUUGUUUG | -0.498
GACCAAUCUGCCCUCAGAGCUCGAGAACAUCUUCGGAUGCAGAGGAGGCAGGCUUCGGUGGCGCGAUAGCGCCAACGUCCUCAACCACCAAUGCAUCCCACCACAUGAUGGUGCCUGAAGAGCCUUCGUUAUUUG | -3.23
GACCAAUCUGCCCUCAGAGCUCGAGAACAUCUUCGGAUGCAGAGGAGGCAGGCUUCGGUGGCGCGAUAGCGCCAACGUCCUCAACCACCAAUGCAUCCCACCACAUGAUGAUGCCUGAUGAGCCUUGAUUGUUUG | -1.07
GACCAAUCUGCCCUCAGAGCUCGAGAACAUCUUCGGAUGCAGAGGAGGCAGGCUUCGGUGGCGCGAUAGCGCCAACGUCCUCAACCAACAAUGCAUCCCACCACAUGAUUAUGCCUGAAGAGCCUUAGUUUUUUG | -3.99
GACCAAUCUGCCCUCAGAGCUCGAGAACAUCUUCGGAUGCAGAGGAGGCAGGCUUCGGUGGCGCGAUAGCGCCAACGUCCUCAACCACUAAUGCAUCCCACCACAUGAUGAUGCCUGAAGAGAGUUGGUUUUUUG | 1.56
GACCAAUCUGCCCUCAGAGCUCGAGAACAUCUUCGGAUGCAGAGGAGGCAGGCUUCGGUGGCGCGAUAGCGCCAACGUCCUCAACCACCAAUGCAUCCUACCACAUGAUGAUGCCUGAAGAGCCUUGGUUUUUUG | -3.14
GACCAAUCUGCCCUCAGAGCUCGAGAACAUCUUCGGAUGCAGAGGAGGCAGGCUUCGGUGGCGCGAUAGCGCCAACGUCCUCAACCACCAAUGCAUCCCACUAAAUGAUGAUGCCUGAAGAGCCUUGGUUUUUUG | -1.05
GACCAAUCUGCCCUCAGAGCUCGAGAACAUCUUCGGAUGCAGAGGAGGCAGGCUUCGGUGGCGCGAUAGCGCCAACGUCCUCAACCACCAAUGCAUCCCACCACAUGAUGAUGCCUGAAGAGACUUGGUUUUUUG | 0.223
GACCAAUCUGCCCUCAGAGCUCGAGAACAUCUUCGGAUGCAGAGGAGGCAGGCUUCGGUGGCGCGAUAGCGCCAACGUCCUCAACCACCAAUGCAUCCCACCACAUGAUCAUGCCUGAAGAGCCUUGGUUUUUUG | -3.47
GACCAAUCUGCCCUCAGAGCUCGAGAACAUCUUCGGAUGCAGAGGAGGCAGGCUUCGGUGGCGCGAUAGCGCCAACGUCCUCAACCACCAAUGCAUCCCACCACAUGAUGAUGCCUGAAAAGCCUUGGUUUUUUG | 0.663
GACCAAUCUGCCCUCAGAGCUCGAGAACAUCUUCGGAUGCAGAGGAGGCAGGCUUCGGUGGCGCGAUAGCGCCAACGUCCUCAACCACCAAUGCAUCCCACCACAAGAUGAUACCUGAAGAGCCUUGGUUUUUUG | -2.17
GACCAAUCUGCCCUCAGAGCUCGAGAACAUCUUCGGAUGCAGAGGAGGCAGGCUUCGGUGGCGCGAUAGCGCCAACGUCCUCAACCACCAAUGCAUCCCACCACAGGAUGAUGCCUGAAGAGCCUUGGUUUUUUG | -1.35
GACCAAUCUGCCCUCAGAGCUCGAGAACAUCUUCGGAUGCAGAGGAGGCAGGCUUCGGUGGCGCGAUAGCGCCAACGUCCUCAACCCCCAAUGCUUCCCACAACAUGAUGAUGCCUGAAGAGCAUUGCUUUUUUG | -3.08
GACCAAUCUGCCCUCAGAGCUCGAGAACAUCUUCGGAUGCAGAGGAGGCAGGCUUCGGUGGCGCGAUAGCGCCAACGUCCUCAACCCCGAAUGCAUCCCACCACAUGAUGAUGCCUGAAGAGCCUUGGUUUUUUG | -1.1
GACCAAUCUGCCCUCAGAGCUCGAGAACAUCUUCGGAUGCAGAGGAGGCAGGCUUCGGUGGCGCGAUAGCGCCAACGUCCUCAACCCCCAAUGCAUCCAAUCACAUGAUGAUGCCCGAAGAGCCUUGGUUUUUUG | -6.81
GACCAAUCUGCCCUCAGAGCUCGAGAACAUCUUCGGAUGCAGAGGAGGCAGGCUUCGGUGGCGCGAUAGCGCCAACGUCCUCAACCCCCAAUGCAUCCUACCACAUGAUGAUGCCUGAAGAGCCUUGGGUUUUUG | -3.62
